According to the RNAGym collection of RNA variant scans (doi:10.7554/elife.80360):

B1: Hairpin Ribozyme (parent)
chain: GUCCUCUUUCACGUGCGCGUGAAAGAGAGAAGUGAACCAGAGAAACACACGUUGUGGUAUAUUACCUGGUA

Variants of: B1
Experiment: self-cleavage, relative activity (ratio to wild type); higher = more cleavage; co-transcriptional

Variant	self-cleavage
A23G A71C	1.37
A22G A39U	0.42
A22G A39C	0.475
A22U U55A	0.255
A22U U55C	0.178
A22U U58C	1.04
A22U G42U	0.369
A22C C38A	0.124
G21U G57C	0.176
A23U A71U	0.66
A23C A64C	0.0802
A23C A64U	0.118
G21U A35G	0.757
A22U A71U	0.747
A22U A71G	0.791
G21U A31U	0.0962
A23C G51U	0.993
A23C G29A	0.177
A23C G29U	0.0906
A22U G51A	0.811
A22G G54C	0.35
A22U G29U	0.071
A22U G29C	0.214
A23C A24U	0.626

Variant	self-cleavage
A23G C46U	0.0862
A23G A28C	0.641
A22G A61G	0.285
A23G G34A	1.12
A22C G29U	0.131
A22C G29A	0.0644
G21U A61G	0.245
G21U A41G	0.772
A23G U63A	0.113
A22G U55G	0.33
A22G C65A	0.631
A22U A44U	0.173
A22C U67G	0.204
A22C G56A	0.165
A23C A44C	0.251
A23G G27A	0.496
A22U U52A	0.836
A23C G32A	0.102
A23C G32C	0.0217
A23C G32U	0.15
A23G U58G	0.657
A22U G27C	0.178
A22U G27U	0.187
A22U G27A	0.283

Variant	self-cleavage
A23G C38U	0.43
A23G C38A	0.239
A23C G27U	0.253
A22C A24C	0.233
G21U A47C	0.282
A22G G32U	0.0605
A22G G32A	0.0872
A22G G34C	1.52
A22G G34A	0.987
A22G G34U	1.22
A22G A59G	0.212
A22G C66G	0.302
A22G G56C	0.137
A23U A41U	1.07
A22C U62C	0.196
A22C A45G	0.15
A22C A43G	0.249
A23G G69U	0.148
A22U U33G	0.174
G21U G32C	0.145
G21U G32A	0.18
A23U A24G	0.587
A22C G57U	0.162
A22C G57C	0.117

Variant	self-cleavage
A22G A26G	1.09
A23U A26C	0.545
A23U A26U	0.606
A23C G54A	0.416
A23C G54U	0.7
A23C U60C	0.921
A23C U60A	0.744
A22G A43C	0.158
A22G A43U	0.0762
A22G A43G	0.121
A22C A39U	0.461
A22G C50A	0.227
A23G G29U	0.164
A23G A36G	0.933
A23G A36U	0.514
G21U C66A	0.236
G21U C66G	0.123
A23G G57A	0.19
A23G G57C	0.177
A23G A35G	0.939
A22U A47G	0.115
A23G A44G	0.126
A23C U70G	0.685
A23C U70A	0.872

Variant	self-cleavage
G21U C37G	0.32
A23U A49G	0.356
A23C U63C	0.136
G21U G34C	1.08
G21U U52G	0.661
A22U A36U	0.58
A23G C50A	0.218
A22C A36G	1.05
A23C U62C	0.206
A22U G34C	0.996
A22U G34U	1.21
A22C G69C	0.366
A23C A30U	0.118
A23C A30G	0.184
G21U G68C	0.187
G21U A49U	0.189
G21U C65G	0.257
G21U C65U	0.234
G21U U67G	0.36
G21U G40C	0.122
A22C G27C	0.123
A22U U62G	0.147
A22C A41U	1.06
A22C C37U	0.435

Variant	self-cleavage
A22C C37A	0.25
A22C C37G	0.368
A22G A71G	0.907
A22G A71U	0.702
A23G A31C	0.194
G21U G51A	0.822
G21U A43C	0.146
A23G U33G	0.125
A23G U33A	0.131
A23C A47C	0.417
A23C A47U	0.0967
A22U G56C	0.214
A22U G56U	0.063
A22G U70C	0.57
A23C A49G	0.393
A23C A49U	0.257
A23G U62A	0.116
A23C G42A	0.287
A23C G42C	0.422
A23C G42U	0.348
A22C U63A	0.288
A22U G69C	0.219
G21U U70A	0.791
G21U U70G	0.687

Variant	self-cleavage
A23G A61C	0.266
A23G A61G	0.136
A22U A35U	0.611
A22U A35C	0.762
A22U A35G	0.84
A22U A26C	0.479
A22U A26U	0.907
A22C U55A	0.217
G21U C46G	0.0824
G21U A71C	1.2
G21U A71U	0.754
A23C A26U	0.499
A23C A26G	1.01
A22G G51U	0.957
A22G G51A	1.05
A22U	0.864
A22G	0.871
A22C	0.848
A22C A44G	0.135
A22G A28C	0.689
A22G A28U	0.673
A22U A24U	0.554
A22U A24C	0.71
